Data: patent US20140363844

Legend:
[1] = target: T1, Presegetalin A1[14,32]D24A
T1 chain: GVPVWAFQAKAVENASAPV

[2] = target: T2, Presegetalin A1[14,32]G14A
T2 chain: AVPVWAFQAKDVENASAPV

[3] = target: T3, Presegetalin B1[14,31]
T3 chain: GVAWAFQAKDVENASAPV

[4] = target: T4, Presegetalin L1[14,32]
T4 chain: GLPGWPFQAKDVENASAPV

[5] = target: T5, Presegetalin A1[14,32] ins 16AAA17
T5 chain: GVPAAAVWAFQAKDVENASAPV

[6] = target: T6, Presegetalin A1[14,32]V25A
T6 chain: GVPVWAFQAKDAENASAPV

[7] = target: T7, Presegetalin A1[14,32]V15A
T7 chain: GAPVWAFQAKDVENASAPV

[8] = target: T8, Presegetalin A1[14,28]
T8 chain: GVPVWAFQAKDVENA

[9] = target: T9, Presegetalin A1[14,32]V15v
T9 chain: GVPVWAFQAKDVENASAPV

B1: Saponaria vaccaria PCY1 (recombinant, N-terminal His6-tag, expressed in E. coli from pCB008) (protein)
chain: MATSGFSKPLHYPPVRRDETVVDDYFGVKVADPYRWLEDPNSEETKEFVDNQEKLANSVLEECELIDKFKQKIIDFVNFPRCGVPFRRANKYFHFYNSGLQAQNVFQMQDDLDGKPEVLYDPNLREGGRSGLSLYSVSEDAKYFAFGIHSGLTEWVTIKILKTEDRSYLPDTLEWVKFSPAIWTHDNKGFFYCPYPPLKEGEDHMTRSAVNQEARYHFLGTDQSEDILLWRDLENPAHHLKCQITDDGKYFLLYILDGCDDANKVYCLDLTKLPNGLESFRGREDSAPFMKLIDSFDASYTAIANDGSVFTFQTNKDAPRKKLVRVDLNNPSVWTDLVPESKKDLLESAHAVNENQLILRYLSDVKHVLEIRDLESGALQHRLPIDIGSVDGITARRRDSVVFFKFTSILTPGIVYQCDLKNDPTQLKIFRESVVPDFDRSEFEVKQVFVPSKDGTKIPIFIAARKGISLDGSHPCEMHGYGGFGINMMPTFSASRIVFLKHLGGVFCLANIRGGGEYGEEWHKAGFRDKKQNVFDDFISAAEYLISSGYTKARRVAIEGGSNGGLLVAACINQRPDLFGCAEANCGVMDMLRFHKFTLGYLWTGDYGCSDKEEEFKWLIKYSPIHNVRRPWEQPGNEETQYPATMILTADHDDRVVPLHSFKLLATMQHVLCTSLEDSPQKNPIIARIQRKAAHYGRATMTQIAEVADRYGFMAKALEAPWID
- CP (cyclic peptide product detected by LC/MS) [1]: +
- LP (linear peptide product detected by LC/MS) [1]: +
- linear segetalin A production relative to WT substrate [1]: showed a relative increase in production of linear segetalin A
- segetalin A production relative to WT substrate [1]: segetalin A production was found to be ≧42 times lower than the WT substrate
- CP (cyclic peptide product detected by LC/MS) [2]: +
- LP (linear peptide product detected by LC/MS) [2]: +
- linear peptide product in LC/MS [2]: the highest amount of linear peptide product was detected with No. 7
- relative intensity of cyclic peptide product in LC/MS [2]: makes less product (cyclic peptide) with the substitution of glycine to alanine at the first position in segetalin A (No. 7) than with No. 8 to 11
- CP (cyclic peptide product detected by LC/MS) [3]: +
- LP (linear peptide product detected by LC/MS) [3]: -
- CP (cyclic peptide product detected by LC/MS) [4]: +
- LP (linear peptide product detected by LC/MS) [4]: -
- CP (cyclic peptide product detected by LC/MS) [5]: +
- LP (linear peptide product detected by LC/MS) [5]: +
- CP (cyclic peptide product detected by LC/MS) [6]: +
- LP (linear peptide product detected by LC/MS) [6]: +
- linear segetalin A production relative to WT substrate [6]: showed a relative increase in production of linear segetalin A
- segetalin A production relative to WT substrate [6]: substitutions at positions 25, 26 and 29 (No. 18, 19 and 22) yielded relatively higher amounts of segetalin A than that produced from WT substrate
- CP (cyclic peptide product detected by LC/MS) [7]: +
- LP (linear peptide product detected by LC/MS) [7]: +
- CP (cyclic peptide product detected by LC/MS) [8]: -
- LP (linear peptide product detected by LC/MS) [8]: +
- linear peptide formation (LC/MS, MS/MS) [8]: showed linear peptide formation almost equivalent to the linear peptide formed from the WT substrate (No. 1)
- CP (cyclic peptide product detected by LC/MS) [9]: +
- LP (linear peptide product detected by LC/MS) [9]: +
